Results on four molecules are retold here after paper PMC11661314 (bioRxiv, 2024).

Residue numbers refer to the chain shown, from its start.

Holding throughout (assay): ELISA
Assay [1] deals with T1, E. coli (UTI89) FimH lectin domain truncate (Escherichia coli UTI89, strain).
T1 chain: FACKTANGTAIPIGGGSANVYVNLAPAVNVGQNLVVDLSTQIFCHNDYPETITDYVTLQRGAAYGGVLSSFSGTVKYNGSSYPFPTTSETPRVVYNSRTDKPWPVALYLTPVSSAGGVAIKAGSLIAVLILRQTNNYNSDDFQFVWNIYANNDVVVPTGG

Assay [2] has as its target T2, K. pneumoniae (TOP52) FimH lectin domain truncate (Klebsiella pneumoniae TOP52, strain).
T2 chain: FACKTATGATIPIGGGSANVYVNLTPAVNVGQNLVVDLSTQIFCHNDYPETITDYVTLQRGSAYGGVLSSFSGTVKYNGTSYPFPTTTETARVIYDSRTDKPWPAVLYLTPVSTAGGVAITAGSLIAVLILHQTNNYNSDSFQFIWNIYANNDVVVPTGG

The target in assay [3] is T3, E. coli FmlH lectin domain (Escherichia coli UTI89 (strain from PDB …)).
T3 chain: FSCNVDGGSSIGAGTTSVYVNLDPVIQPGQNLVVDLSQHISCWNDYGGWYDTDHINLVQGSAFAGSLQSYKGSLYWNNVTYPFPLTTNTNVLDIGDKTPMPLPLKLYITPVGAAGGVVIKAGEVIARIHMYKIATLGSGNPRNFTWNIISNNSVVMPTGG

B1: Ec3 B7 mAb (chimeric murine/human IgG) (antibody, V domains shown)
VH: EVQLQQPGAELVRPGASVKMSCKASGYTFTIYNLHWVKQTPRQGLEWIGTIYPGDGDTSYNQKFKGKATLTVDKSSSTAYMQLSNLTSEDSAVYFCAREGDYGPWFAYWGQGTLVTVSA
VL: QIVLTQSPAIMSASPGEKVTMTCRASSSVSSSYLHWYQQKSGASPKLWIYSSSNLASGVPARFSGSGSGTSYSLTINSVEAEDAATYYCQHYGSYPLTFGGGTKLEIK
As for B1, in assay [1], the binding result was “binds”.

B2: Kp1 2H04 mAb (chimeric murine/human IgG) (antibody, V domains shown)
VH: EVQLQQSGAELVKPGASVKLSCKASGYTFTSYWMHWVKQRPGQGLEWIGLIHPNSSSTYYNEKFKTRATLTVDKSSSTAYMQLSSLTSEDSAVYYCARLGYGNSYWYFDVWGTGTTVTVSS
VL: QIVLTQSPALMAASPGEKVTITCSVSSSISSSNLHWYQQKSETSPKPWIYGTSNLASGVPIRFSGSGSGTSYSLTISSLEAEDAATYYCQQWRSYPWTFGGGTKLEIK
Take B2: the binding result in assay [1] and in assay [2] was “binds” throughout.

B3: Ec1 F7 mAb (chimeric murine/human IgG) (antibody, V domains shown)
VH: EVQLQQPGPVLVKPGPSVKISCKASGFTFTDYFIHWVKQSHGKSLEWIGLVSPYNGGTYYNQQFKGKATLTVDTSSSTAYMDLNSLTSEDSAVYYCTRLLRGYWYFDVWGTGTTVTVSS
VL: B2 VL with S30G, I61V, L79M, R93S, S94T, W97Y
Take B3: the binding result in assay [1] and in assay [2] was “binds” throughout.

B4: Kp2 2C07 mAb (chimeric murine/human IgG) (antibody, V domains shown)
VH: EVKLVESGEGLVKPGGSLKLSCAASGFTFSSYAMSWVRQTPEKRLDWVAYISSGGDHIYYADTVKGRFTISRDNARNTLYLQMSSLKSEDTAMYYCTRDTGYYVSRYFDVWGTGTTVTVSS
VL: DIVMTQSQKFMSTSVGDRVSVTCKASQNVVTNVAWYQQKSGQSPKVVIYSASFRSSGVPDRFTGSGSGTDFTLTISNVQSEDLAEYFCHQYNSHPLTFGGGTKLEIK
For B4, the binding result is recorded as “no binding” in assay [3], “binds” in assay [1] and “binds” in assay [2].
